The chains are these.
T1: human FcγR2A 131H allotype (recombinant, extracellular domain only) (human, UniProt P12318 34-217)
T1 construct: extracellular domain; 131H allotype; Position 131 is the customary mature-protein numbering; also called FcyR2A (131H)
T1 sequence (looked up): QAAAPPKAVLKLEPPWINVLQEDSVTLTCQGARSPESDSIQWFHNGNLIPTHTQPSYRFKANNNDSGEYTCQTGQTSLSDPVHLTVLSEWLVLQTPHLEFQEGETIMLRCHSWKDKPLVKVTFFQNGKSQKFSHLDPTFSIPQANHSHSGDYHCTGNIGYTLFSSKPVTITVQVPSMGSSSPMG

T2: human FcγR2A 131R allotype (recombinant, extracellular domain only) (human, UniProt P12318 34-217)
T2 construct: extracellular domain; 131R allotype; Position 131 is the customary mature-protein numbering; also called FcyR2A (131R)
T2 sequence (looked up): T1 sequence (looked up) with H134R

T3: human FcγR2B (recombinant, extracellular domain only) (human, UniProt P31994 43-217)
T3 construct: extracellular domain; also called FcyR2B; FcgR2B
T3 sequence (looked up): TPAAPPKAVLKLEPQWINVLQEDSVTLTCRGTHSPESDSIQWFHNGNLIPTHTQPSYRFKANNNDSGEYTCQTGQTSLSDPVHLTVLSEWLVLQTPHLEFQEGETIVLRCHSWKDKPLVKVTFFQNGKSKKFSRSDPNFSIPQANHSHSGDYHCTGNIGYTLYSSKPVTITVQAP

B1: Parental (Clone 19 VH and VL) (antibody, V domains shown)
VH: QVQLQQSGAELVKPGASVKMSCKAFGYTFTTYPIEWMKQNHGKSLEWIGNFHPYNDDTKYNEKFKGKAKLTVEKSSTTVYLELSRLTSDDSAVYYCARENYGSHGGFVYWGQGTLVTVSG
VL: ENVLTQSPAIMSASPGEKVTMTCRASSSVISSYLHWYQQKSGASPKLWIYSTSNLASGVPDRFSGSGSGTSYSLTISSVEAEDAATYYCQQYNSYPLTFGAGTKLEIK
notes: The antibodies were captured through anti-human IgG and the variants were made on human IgG1 kappa, so it is probably a chimeric human IgG1 kappa
B2: humCL19v9 (antibody, human IgG1, V domains shown)
VH: QVQLVQSGSELKKPGASVKVSCKAFGYTFTTYPIEWMRQAPGQGLEWIGNFHPYNDDTKYNEGFTGRFVLSVDKSSTTVYLQISSLKAEDTAVYYCARENYGSHGGFVYWGQGTLVTVSS
VL: ENQLTQSPSSLSASVGDRVTITCRASSSVISSYLHWYQQKPGKAPKLLIYSTSNLASGVPSRFSGSGSGTDYTLTISSLQPEDFATYYCQQYNSYPLTFGGGTKLEIK
notes: hu-VH3 + hu-VL1; human IgG1 kappa isotype
B3: humCL19v14 (antibody, human IgG1, V domains shown)
VH: B2 VH with M37V, I48M, L70F, S76V
VL: B2 VL with N93R, S94G
notes: hu-VH4 + hu-VL2; human IgG1 kappa isotype
B4: humCL19v10 (antibody, human IgG1, V domains shown)
VH: B2 VH
VL: B2 VL with N93R, S94G
notes: hu-VH3 + hu-VL2; human IgG1 kappa isotype
B5: humCL19v13 (antibody, human IgG1, V domains shown)
VH: B2 VH with M37V, I48M, L70F, S76V
VL: B2 VL
notes: hu-VH4 + hu-VL1; human IgG1 kappa isotype
B6: humCL19v3 (antibody, human IgG1, V domains shown)
VH: QVQLVQSGAEVKKPGASVKVSCKAFGYTFTTYPIEWMRQAPGKGLEWIGNFHPYNDDTKYNEKFQGRVTLTVDKSSTTVYMELSSLRSEDTAVYYCARENYGSHGGFVYWGQGTLVTVSS
VL: ENVLTQSPATLSLSPGERATLSCRASSSVISSYLHWYQQKPGQAPRLLIYSTSNLASGIPARFSGSGSGTDYTLTISSLEPEDFAVYYCQQYNSYPLTFGGGTKLEIK
notes: hu-VH1 + hu-VL3; human IgG1 kappa isotype
B7: humCL19v11 (antibody, human IgG1, V domains shown)
VH: B2 VH
VL: B6 VL
notes: hu-VH3 + hu-VL3; human IgG1 kappa isotype
B8: humCL19v6 (antibody, human IgG1, V domains shown)
VH: B6 VH with M37V, I48M, L70M, S76T
VL: B2 VL with N93R, S94G
notes: hu-VH2 + hu-VL2; human IgG1 kappa isotype
B9: humCL19v5 (antibody, human IgG1, V domains shown)
VH: B6 VH with M37V, I48M, L70M, S76T
VL: B2 VL
notes: hu-VH2 + hu-VL1; human IgG1 kappa isotype
B10: humCL19v4 (antibody, human IgG1, V domains shown)
VH: B6 VH
VL: B6 VL with L55R, S57T
notes: hu-VH1 + hu-VL4; human IgG1 kappa isotype
B11: humCL19v16 (antibody, human IgG1, V domains shown)
VH: B2 VH with M37V, I48M, L70F, S76V
VL: B6 VL with L55R, S57T
notes: hu-VH4 + hu-VL4; human IgG1 kappa isotype
B12: humCL19v7 (antibody, human IgG1, V domains shown)
VH: B6 VH with M37V, I48M, L70M, S76T
VL: B6 VL
notes: hu-VH2 + hu-VL3; human IgG1 kappa isotype
B13: humCL19v12 (antibody, human IgG1, V domains shown)
VH: B2 VH
VL: B6 VL with L55R, S57T
notes: hu-VH3 + hu-VL4; human IgG1 kappa isotype
B14: humCL19v8 (antibody, human IgG1, V domains shown)
VH: B6 VH with M37V, I48M, L70M, S76T
VL: B6 VL with L55R, S57T
notes: hu-VH2 + hu-VL4; human IgG1 kappa isotype
B15: humCL19v2 (antibody, human IgG1, V domains shown)
VH: B6 VH
VL: B2 VL with N93R, S94G
notes: hu-VH1 + hu-VL2; human IgG1 kappa isotype
B16: humCL19v1 hIgG1 L235N (antibody)
VH: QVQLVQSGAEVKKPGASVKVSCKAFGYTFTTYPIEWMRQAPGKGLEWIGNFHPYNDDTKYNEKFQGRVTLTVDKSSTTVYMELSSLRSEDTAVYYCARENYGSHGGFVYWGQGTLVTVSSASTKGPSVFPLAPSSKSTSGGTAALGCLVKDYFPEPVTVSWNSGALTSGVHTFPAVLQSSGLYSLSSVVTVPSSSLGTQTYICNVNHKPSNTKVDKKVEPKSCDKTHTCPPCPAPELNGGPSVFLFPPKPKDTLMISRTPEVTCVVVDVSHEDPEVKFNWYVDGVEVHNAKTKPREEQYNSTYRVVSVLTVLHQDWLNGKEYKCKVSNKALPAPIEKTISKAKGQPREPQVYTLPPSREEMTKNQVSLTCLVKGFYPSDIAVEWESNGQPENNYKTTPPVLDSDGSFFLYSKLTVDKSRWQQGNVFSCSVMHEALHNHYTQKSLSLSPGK
VL: ENQLTQSPSSLSASVGDRVTITCRASSSVISSYLHWYQQKPGKAPKLLIYSTSNLASGVPSRFSGSGSGTDYTLTISSLQPEDFATYYCQQYNSYPLTFGGGTKLEIKRTVAAPSVFIFPPSDEQLKSGTASVVCLLNNFYPREAKVQWKVDNALQSGNSQESVTEQDSKDSTYSLSSTLTLSKADYEKHKVYACEVTHQGLSSPVTKSFNRGEC
B17: humCL19v1 hIgG1 Y300N (antibody)
VH: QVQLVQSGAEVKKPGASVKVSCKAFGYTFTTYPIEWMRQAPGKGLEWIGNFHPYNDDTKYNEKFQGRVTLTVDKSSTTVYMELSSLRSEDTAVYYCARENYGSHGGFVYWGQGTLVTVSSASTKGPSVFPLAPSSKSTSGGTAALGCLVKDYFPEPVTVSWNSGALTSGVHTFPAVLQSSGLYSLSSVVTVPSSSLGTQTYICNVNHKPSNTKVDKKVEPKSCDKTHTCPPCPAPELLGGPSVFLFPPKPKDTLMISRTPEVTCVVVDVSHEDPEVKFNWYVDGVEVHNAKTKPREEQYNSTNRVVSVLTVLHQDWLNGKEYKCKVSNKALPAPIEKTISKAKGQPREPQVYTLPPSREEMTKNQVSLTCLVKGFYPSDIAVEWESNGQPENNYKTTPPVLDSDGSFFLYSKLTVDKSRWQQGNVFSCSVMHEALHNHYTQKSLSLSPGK
VL: B16 VL
B18: humCL19v1 hIgG1 L235H (antibody)
VH: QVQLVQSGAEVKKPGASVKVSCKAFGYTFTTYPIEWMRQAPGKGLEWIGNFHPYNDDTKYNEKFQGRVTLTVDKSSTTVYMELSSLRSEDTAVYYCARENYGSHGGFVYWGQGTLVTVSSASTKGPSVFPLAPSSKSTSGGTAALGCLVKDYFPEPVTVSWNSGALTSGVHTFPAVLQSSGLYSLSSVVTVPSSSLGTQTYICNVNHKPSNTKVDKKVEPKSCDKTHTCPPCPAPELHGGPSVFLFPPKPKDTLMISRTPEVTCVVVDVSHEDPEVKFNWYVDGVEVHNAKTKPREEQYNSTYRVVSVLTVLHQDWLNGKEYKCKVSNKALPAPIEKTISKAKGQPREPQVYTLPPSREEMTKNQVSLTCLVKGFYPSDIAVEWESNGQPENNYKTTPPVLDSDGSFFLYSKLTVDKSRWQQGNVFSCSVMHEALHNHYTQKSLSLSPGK
VL: B16 VL
B19: humCL19v1 hIgG1 V266M (antibody)
VH: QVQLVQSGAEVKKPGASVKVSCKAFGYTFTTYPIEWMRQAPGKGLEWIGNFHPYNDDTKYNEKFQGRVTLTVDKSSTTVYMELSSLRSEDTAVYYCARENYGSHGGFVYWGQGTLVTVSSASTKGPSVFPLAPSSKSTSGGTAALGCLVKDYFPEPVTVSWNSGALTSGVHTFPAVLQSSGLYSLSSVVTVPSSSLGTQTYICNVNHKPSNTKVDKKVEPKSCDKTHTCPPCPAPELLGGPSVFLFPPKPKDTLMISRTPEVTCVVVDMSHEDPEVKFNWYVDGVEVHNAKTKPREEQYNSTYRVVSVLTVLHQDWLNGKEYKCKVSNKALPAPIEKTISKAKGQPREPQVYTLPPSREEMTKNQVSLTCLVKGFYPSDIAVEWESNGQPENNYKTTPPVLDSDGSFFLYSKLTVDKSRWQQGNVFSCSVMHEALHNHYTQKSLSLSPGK
VL: B16 VL
B20: humCL19v1 P238D (antibody, human IgG1, kappa)
heavy: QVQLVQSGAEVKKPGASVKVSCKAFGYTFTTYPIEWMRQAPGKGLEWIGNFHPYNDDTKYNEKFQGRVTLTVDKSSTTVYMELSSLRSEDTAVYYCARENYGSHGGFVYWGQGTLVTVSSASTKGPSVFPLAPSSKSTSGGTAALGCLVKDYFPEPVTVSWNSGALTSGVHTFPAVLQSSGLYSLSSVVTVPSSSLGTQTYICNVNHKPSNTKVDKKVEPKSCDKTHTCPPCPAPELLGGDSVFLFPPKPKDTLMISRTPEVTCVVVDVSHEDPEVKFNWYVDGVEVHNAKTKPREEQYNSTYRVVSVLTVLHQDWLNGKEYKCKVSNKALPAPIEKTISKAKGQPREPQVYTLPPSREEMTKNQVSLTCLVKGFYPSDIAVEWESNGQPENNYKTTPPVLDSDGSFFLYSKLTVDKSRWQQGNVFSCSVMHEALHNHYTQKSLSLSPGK
light: B16 VL
notes: That makes them humCL19v1 P238D; also called hIgG1 P238D; P238D mutated humCL19v1
B21: humCL19v1 hIgG1 S239V (antibody)
VH: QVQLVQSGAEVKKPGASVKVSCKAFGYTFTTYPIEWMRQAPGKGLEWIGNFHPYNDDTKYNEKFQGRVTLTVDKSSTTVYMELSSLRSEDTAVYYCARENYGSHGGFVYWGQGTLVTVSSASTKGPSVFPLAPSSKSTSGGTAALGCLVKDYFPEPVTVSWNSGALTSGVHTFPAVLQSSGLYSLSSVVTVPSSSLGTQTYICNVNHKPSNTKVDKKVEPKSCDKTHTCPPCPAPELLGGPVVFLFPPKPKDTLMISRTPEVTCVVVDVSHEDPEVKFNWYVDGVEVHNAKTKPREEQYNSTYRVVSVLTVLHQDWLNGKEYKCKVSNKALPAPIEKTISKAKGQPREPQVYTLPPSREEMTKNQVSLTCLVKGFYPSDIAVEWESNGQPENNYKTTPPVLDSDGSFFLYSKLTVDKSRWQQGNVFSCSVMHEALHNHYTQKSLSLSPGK
VL: B16 VL
B22: humCL19v1 hIgG1 S239I (antibody)
VH: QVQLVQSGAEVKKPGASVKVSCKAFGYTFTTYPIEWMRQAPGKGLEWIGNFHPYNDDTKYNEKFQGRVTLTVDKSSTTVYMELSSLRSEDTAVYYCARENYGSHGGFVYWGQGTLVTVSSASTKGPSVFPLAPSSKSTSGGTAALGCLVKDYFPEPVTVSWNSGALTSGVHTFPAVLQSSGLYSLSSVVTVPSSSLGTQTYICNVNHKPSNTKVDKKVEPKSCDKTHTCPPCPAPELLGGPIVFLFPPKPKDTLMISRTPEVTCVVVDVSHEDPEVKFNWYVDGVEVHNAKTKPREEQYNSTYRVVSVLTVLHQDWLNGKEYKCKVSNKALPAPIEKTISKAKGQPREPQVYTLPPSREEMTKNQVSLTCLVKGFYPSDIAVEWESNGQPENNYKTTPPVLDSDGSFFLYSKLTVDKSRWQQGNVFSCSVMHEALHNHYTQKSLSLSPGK
VL: B16 VL

We go through 22 molecules from patent publication US20230312743A1 (MIROBIO, published 2023).

Broadly, the Kd is a measure of binding affinity in units of concentration.

Residue numbers refer to the chain shown, from its start. Numbers in names are those of the source.

T5 sequence (B0LAJ3 entry or part of it limits assumed): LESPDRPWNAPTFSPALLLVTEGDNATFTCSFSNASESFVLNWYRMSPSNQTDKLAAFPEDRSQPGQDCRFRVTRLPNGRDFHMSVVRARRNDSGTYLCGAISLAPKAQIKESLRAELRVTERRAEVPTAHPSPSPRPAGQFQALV

The target of one assay is T4, monomeric soluble human PD-1 extracellular domain (human, UniProt Q15116 25-170).
T4 construct: extracellular domain; also called recombinant human PD-1 extracellular domain
T4 sequence (Q15116 25-170): as the sequence (B0LAJ3 entry or part of it limits assumed) above, with E2D, A10P, L19V, A35T, R75Q, A144T counted along it
Put plainly: SPR (Biacore 8K), 37 C, antibody captured via anti-human IgG, soluble PD-1 ECD as analyte, single cycle kinetics. The method, then:
(§1) Antibody variants were produced consisting of all the potential combinations of humanized VH and VL domains. […] The binding affinity and kinetics of the humanized antibody variants to human or cynomolgus PD-1 were determined by surface plasmon resonance (SPR) using the Biacore 8 K (Cytiva). Human antibody capture kit (Cytiva) was used to coat a Series S CM5 Sensor Chip (Cytiva) with polyclonal anti-human IgG. Anti-PD-1 antibody was then captured onto the biosensor surface and an isotype control antibody captured in the reference channel. Various concentrations of monomeric soluble human PD-1 extracellular domain or soluble cynomolgus macaque PD-1 extracellular domain were then injected over the immobilized antibodies in the buffer 10 mM Hepes, 150 mM NaCl, 0.005% v/v Surfactant P20, pH 7.4 (HBS-P) at 37° C., in a single cycle kinetics analysis. Association and dissociation rates were fitted using BiaEvaluation Software (Cytiva) after reference and blank subtractions, and dissociation constants were calculated.
(Surface plasmon resonance follows binding to a sensor surface in real time, without labels.)
In the case of B1, the Kd is 53.7 nM.

For the molecule B2, the Kd was determined as 44.8 nM.

For the molecule B3, the Kd is 80200 nM.

With B4, the Kd was 670 nM.

For B5, the Kd amounted to 160 nM.

As to B6, the dissociation constant Kd came to 37.3 nM.

For the molecule B7, the Kd worked out at 52.5 nM.

Take B8: the Kd was determined as 2000 nM.

As to B9, the dissociation constant (Kd) worked out at 57.6 nM.

Consider B10, for which the equilibrium dissociation constant (Kd) came out at 32 nM.

In the case of B11, the Kd is 161 nM.

For the molecule B12, the Kd is 64.5 nM.

In the case of B13, the Kd came to 47.5 nM.

As to B14, the dissociation constant (Kd) came to 58.9 nM.

Turning to B15, the Kd was 1010 nM.

The next assay concerns the target T5, soluble cynomolgus macaque PD-1 extracellular domain (cynomolgus macaque, UniProt B0LAJ3 25-170).
T5 construct: also called Cyno PD-1; cynomolgus PD-1
Described as above. The method, then: as §1
As to B1, the equilibrium dissociation constant (Kd) was 318 nM.

Consider B2, for which the Kd was found to be 251 nM.

As to B6, the dissociation constant (Kd) stood at 236 nM.

As to B7, the Kd is 249 nM.

Turning to B8, the Kd stood at 15200 nM.

In the case of B9, the Kd is 440 nM.

On to B10, for which the Kd was determined as 199 nM.

As for B11, the Kd was 896 nM.

Turning to B12, the Kd is 565 nM.

Turning to B13, the equilibrium dissociation constant (Kd) turned out to be 253 nM.

With B14, the Kd worked out at 369 nM.

The target of a further assay is T1, human FcγR2A 131H allotype …. The assay is described as follows: SPR (Biacore 8K), 37 C, steady state; antibody captured on immobilised human PD-1 ECD, FcR ECD as analyte. The method, then:
(§2) The interactions were assessed by surface plasmon resonance using a Biacore 8 K with the recombinantly expressed FcRs (extracellular domains only) as analyte. Briefly, recombinant human PD-1 extracellular domain was covalently immobilized to both flow cells of all channels of a CM5 Series S sensor chip using the GE Healthcare Amine coupling kit. […] Steady state affinity analysis was then performed by injecting varying concentrations of FcR and measuring equilibrium binding. Double referencing was used (subtracting the signal in the reference Fc1 and also subtracting the signal from a blank zero concentration injection). KD values were calculated from the Langmuir curves (plotting equilibrium binding against analyte concentration to determine the concentration required for half maximal binding).
On to B16, for which the Kd is 13.5 nM.

With B17, the dissociation constant (Kd) came out at 2.83 nM.

Turning to B18, the Kd worked out at 3.96 nM.

For B19, the Kd came out at 6.28 nM.

B20: the equilibrium dissociation constant (Kd) is 90.3 nM.

B21: the equilibrium dissociation constant (Kd) turned out to be 3.13 nM.

B22: the Kd came to 3.38 nM.

For a further assay, the target named is T2, human FcγR2A 131R allotype …. The assay is described as above. As to the method: as §2
As to B16, the Kd was found to be 12.3 nM.

As for B17, the Kd is 2.22 nM.

As to B18, the dissociation constant Kd worked out at 3.67 nM.

Take B19: the Kd amounted to 0.58 nM.

As to B20, the Kd came out at 17.5 nM.

Regarding B21, the dissociation constant (Kd) was 1.62 nM.

Turning to B22, the equilibrium dissociation constant (Kd) is 1.65 nM.

A further assay has as its target T3, human FcγR2B (recombinant, …). Described as above. The method, then:
as §2
For B16, the Kd stood at 59 nM.

As to B17, the dissociation constant Kd stood at 6.32 nM.

In the case of B18, the Kd worked out at 13.6 nM.

As for B19, the equilibrium dissociation constant (Kd) worked out at 1.54 nM.

Consider B20, for which the Kd stood at 2.79 nM.

In the case of B21, the Kd stood at 3.6 nM.

Turning to B22, the equilibrium dissociation constant (Kd) turned out to be 3.99 nM.
